These results are taken from paper PMC5222524.

In the experiment the target is Class C scavenger receptor of Marsupenaeus japonicus (MjSRC), native protein of hemocytes (Marsupenaeus japonicus (endogenous in hemocytes)). Kind of experiment: cross-linking; hemocytes collected 30 min after injection of WSSV or PBS, 5 mM BS3 at 4°C for 1 h in PBS pH 8.0, quenched with Tris-HCl; SDS-PAGE and western blotting with anti-MjSRC sera; oligomer size by molecular mass.

In turn, “Class C scavenger receptor of Marsupenaeus japonicus (MjSRC), native protein of hemocytes (from UniProt A0A1L2DC21 1-692)” registered a stoichiometry N of 3.

A word on the stoichiometry N: it is a count of units in the complex or per binding partner.
